# In article PMC11724365, “Novel archaeal ribosome dimerization factor facilitating unique 30S–30S dimerization” (Nucleic Acids Research, 2025):
# B1: archaeal ribosome dimerization factor (aRDF) (natural protein, Pyrococcus furiosus)
# chain: MKVVGIKGSVSYLQALKYLKTKKVTKRLKEIEKLVDTLITLAPYAPEGSKIETIRKNYAKISFNKIKTVSRSKIGSPRIKSIMLLLWNFGLLDVKIIENSWYVRKTKLASLLEENFKDLSPSEKLKVYLLGGLLVDTPARFVYRCTLNGVEDYKGVKKAILGYLSDQRSNSLIIGLSNMLESIKFIEEAQAYSGKKEYIGLVDVAFYGLSGLYLDVKRESGKLTVKPNFRELRALYEIDKSVATGSDYGLSISKEILENLANTKRRKTIFSEEVQELLVNVIKENAISISQDLQNMYGII
# notes: aRDF (PF0560 protein) of Pyrococcus furiosus; modelled in PDB 9FNY and 9FNZ with poorly defined loops omitted; Forms homodimers (monomers A and B); two homodimers bridge two 30S subunits in the cryo-EM structures; also called PF0560; PF0560 protein; source: E. coli BL21(DE3), purified (heat treatment, Ni-NTA, heparin)
# Target: the molecule itself
# Experiment: cryo-EM structure; 1 uM P. furiosus 30S subunits with 5 uM aRDF (1:5) in 20 mM HEPES-KOH pH 7.0, 12 mM MgCl2, 100 mM NH4Cl, 0.5 mM EDTA; 15 min at 70 °C before freezing; Structures I and II at 3.2 Å
protein,measurement,value
B1,stoichiometry N,2
